Positions count from the first letter of the chain named.
T1: human thrombopoietin receptor (human c-Mpl) (human, UniProt P40238 26-635)
T1 sequence (looked up): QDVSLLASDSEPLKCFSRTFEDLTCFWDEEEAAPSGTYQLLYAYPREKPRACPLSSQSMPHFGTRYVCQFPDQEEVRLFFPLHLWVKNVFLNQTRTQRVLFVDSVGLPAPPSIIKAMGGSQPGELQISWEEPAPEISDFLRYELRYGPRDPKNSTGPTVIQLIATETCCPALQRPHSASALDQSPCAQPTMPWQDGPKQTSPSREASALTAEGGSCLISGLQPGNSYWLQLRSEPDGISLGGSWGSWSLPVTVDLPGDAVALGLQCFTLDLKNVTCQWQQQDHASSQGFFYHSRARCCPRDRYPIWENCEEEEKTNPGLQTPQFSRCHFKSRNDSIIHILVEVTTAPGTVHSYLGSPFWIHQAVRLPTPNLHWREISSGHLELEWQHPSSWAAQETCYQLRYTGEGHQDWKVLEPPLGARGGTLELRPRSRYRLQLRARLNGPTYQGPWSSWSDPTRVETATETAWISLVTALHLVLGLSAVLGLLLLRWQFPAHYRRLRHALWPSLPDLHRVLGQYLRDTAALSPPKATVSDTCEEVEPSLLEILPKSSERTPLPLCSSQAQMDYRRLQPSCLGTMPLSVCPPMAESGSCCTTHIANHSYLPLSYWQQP

B1: anti-human c-Mpl agonist antibody 4-49 (IgG1) (antibody, V domains shown)
VH: EEQLVESGGGLVQPGRSLRLSCTASGFTFDDYAMYWVRQVPGKGLEWVSGISWNSGSIGYADSVKGRFTVSRDNAKNSLYLQMNSLRAEDTALYYCAKALWFGEFPHYYGMDVWGQGTTVTVSS
VL: AIQLTQSPSSLSASVGDRVTITCRASQGISSTLAWYQQKPGKAPKLLIYDASSLESGVPSRFSGSGSGTDFTLTISSLQPEDFATYYCQQFNSYPYTFGQGTKLEIKR
B2: anti-human c-Mpl agonist antibody 6-4-50 (IgG1) (antibody, V domains shown)
VH: EVQLVESGGGLVQPGRSLRLSCATSGFTFDNYAMYWVRQAPGKGLEWVSGISWNSGDIGYADSVKGRFTISRDNAKNSLYLQMNSLRAEDTALYYCARDAGFGEFHYGLDVWGQGTTVTVSS
VL: B1 VL with T32A, A43V, Y96W, L104V
B3: anti-human c-Mpl agonist antibody 6-5-2 (IgG1) (antibody, V domains shown)
VH: EVQLVECGGGLVQPGRSLRLSCAASGFTFDDYAMHWVRQAPGKGLEWVSGISWNSGSIGYADSVKGRFTISRDNAKNSLYLQMNSLRAEDTALYYCAKPIWFGEWGNYYGMDVWGQGTTVTVSS
VL: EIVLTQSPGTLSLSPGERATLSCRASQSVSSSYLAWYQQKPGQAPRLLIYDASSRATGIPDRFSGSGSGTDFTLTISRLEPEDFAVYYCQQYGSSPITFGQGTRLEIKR
B4: anti-human c-Mpl agonist antibody 7-10 (IgG1) (antibody, V domains shown)
VH: EVQLVESGGGLVQPGRSLRLSCAASGFTFDDYAMHWVRQAPGKGLEWVSGISWNSGSIGYADSVKGRFTISRDNAKNSLYLQMNSLRAEDTALYYCAKNLWFGEFRYWYFDLWGRGTLVTVSS
VL: AIQLTQSPSSLSASVGDRVTITCRASQGISSALAWYQQKPGKAPKLLIYDASSLESGVPSRFSGSGSGTDFTLTISSLQPEDFATYYCQQFNSYPLTFGGGTKVEIK
B5: 7-10G4344uhm light chain mutant 7-10VL_Y94F (antibody, V domains shown)
VH: B4 VH
VL: B4 VL with Y94F

What was measured:
[1] = molecular target: T1, human thrombopoietin receptor (human …); test: cell-based or functional assay
[2] = molecular target: T1, human thrombopoietin receptor (human …); test: flow cytometry on FM3A-hMpl cells, antibody at 1, 0.1, 0.01 ug/mL

Binder	UT7/TPO (Max), maximum activity relative to PEG-rHuMGDF [1] [%]	agonist activity relative to 7-10G4344uhm, UT-7/TPO cell proliferation assay [1]	binding activity relative to 7-10G4344uhm [2]
B1	> 80	–	–
B2	> 80	–	–
B3	> 50	–	–
B4	> 90	–	–
B5	–	~0.1 fold of 7-10G4344uhm	~0.1 fold of 7-10G4344uhm
